From patent US20230265215A1 (OMEROS, published 2023)

Experiments:
[1] = target: T1, human MASP-2 (endogenous, in normal human serum) (human, UniProt O00187 16-686); experiment: cell-based or functional assay
[2] = target: T1, human MASP-2 (endogenous, in normal …); experiment: cell-based or functional assay; remark: listed apart in the source
[3] = target: dog MASP-2 (endogenous, in dog serum) (dog); experiment: cell-based or functional assay
[4] = target: cynomolgus monkey MASP-2 (endogenous, in cynomolgus monkey serum) (cynomolgus monkey, UniProt O00187 16-686 (human entry), limits assumed); experiment: cell-based or functional assay
Sequence of cynomolgus monkey MASP-2 (endogenous, in cynomolgus monkey serum) (O00187 other isoform, or with tags, fused parts or gaps limits assumed): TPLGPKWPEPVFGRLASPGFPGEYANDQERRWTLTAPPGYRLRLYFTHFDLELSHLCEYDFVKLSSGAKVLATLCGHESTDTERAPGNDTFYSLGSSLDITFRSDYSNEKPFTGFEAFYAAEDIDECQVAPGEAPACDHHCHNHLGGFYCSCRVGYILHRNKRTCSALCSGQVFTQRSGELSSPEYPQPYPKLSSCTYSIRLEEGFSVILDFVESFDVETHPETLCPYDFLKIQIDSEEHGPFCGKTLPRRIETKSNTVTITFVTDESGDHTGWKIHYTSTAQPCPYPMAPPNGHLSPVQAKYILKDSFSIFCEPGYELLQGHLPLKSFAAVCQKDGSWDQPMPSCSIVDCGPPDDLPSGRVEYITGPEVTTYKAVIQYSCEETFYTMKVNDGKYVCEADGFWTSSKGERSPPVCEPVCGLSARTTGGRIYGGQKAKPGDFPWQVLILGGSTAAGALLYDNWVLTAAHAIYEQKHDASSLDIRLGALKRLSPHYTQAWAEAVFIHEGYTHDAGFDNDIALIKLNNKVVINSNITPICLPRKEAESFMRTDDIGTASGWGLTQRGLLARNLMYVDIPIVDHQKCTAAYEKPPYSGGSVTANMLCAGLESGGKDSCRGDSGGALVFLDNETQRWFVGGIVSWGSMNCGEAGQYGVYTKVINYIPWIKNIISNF

[5] = target: mouse MASP-2 (endogenous, in mouse serum or hirudin plasma) (mouse, UniProt Q91WP0 20-685); experiment: cell-based or functional assay
Sequence of mouse MASP-2 (endogenous, in mouse serum or hirudin plasma) (Q91WP0 20-685 limits assumed): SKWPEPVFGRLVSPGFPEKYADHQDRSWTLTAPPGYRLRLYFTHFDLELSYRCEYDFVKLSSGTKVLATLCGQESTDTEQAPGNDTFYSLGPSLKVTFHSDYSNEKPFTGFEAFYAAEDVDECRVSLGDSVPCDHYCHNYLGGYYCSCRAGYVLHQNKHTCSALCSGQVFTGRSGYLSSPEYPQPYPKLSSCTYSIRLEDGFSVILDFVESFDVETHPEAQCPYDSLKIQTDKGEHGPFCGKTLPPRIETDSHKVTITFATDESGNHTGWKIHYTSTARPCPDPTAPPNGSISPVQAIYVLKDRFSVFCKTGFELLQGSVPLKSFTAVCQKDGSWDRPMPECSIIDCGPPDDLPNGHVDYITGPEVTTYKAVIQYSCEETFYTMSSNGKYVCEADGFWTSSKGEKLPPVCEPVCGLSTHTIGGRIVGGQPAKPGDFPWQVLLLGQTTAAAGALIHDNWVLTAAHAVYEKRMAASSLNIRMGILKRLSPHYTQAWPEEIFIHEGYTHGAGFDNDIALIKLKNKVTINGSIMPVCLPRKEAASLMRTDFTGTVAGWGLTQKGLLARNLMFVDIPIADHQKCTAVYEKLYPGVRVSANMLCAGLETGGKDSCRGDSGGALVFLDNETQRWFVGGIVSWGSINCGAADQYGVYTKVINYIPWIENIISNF

[6] = target: T2, Catalytically active MASP-2 (human) (human, UniProt O00187 16-686, limits assumed); experiment: SPR, immobilized OMS858, fluid phase MASP-2
T2 construct: also called catalytically active form of human MASP-2
T2 sequence (O00187 16-686 limits assumed): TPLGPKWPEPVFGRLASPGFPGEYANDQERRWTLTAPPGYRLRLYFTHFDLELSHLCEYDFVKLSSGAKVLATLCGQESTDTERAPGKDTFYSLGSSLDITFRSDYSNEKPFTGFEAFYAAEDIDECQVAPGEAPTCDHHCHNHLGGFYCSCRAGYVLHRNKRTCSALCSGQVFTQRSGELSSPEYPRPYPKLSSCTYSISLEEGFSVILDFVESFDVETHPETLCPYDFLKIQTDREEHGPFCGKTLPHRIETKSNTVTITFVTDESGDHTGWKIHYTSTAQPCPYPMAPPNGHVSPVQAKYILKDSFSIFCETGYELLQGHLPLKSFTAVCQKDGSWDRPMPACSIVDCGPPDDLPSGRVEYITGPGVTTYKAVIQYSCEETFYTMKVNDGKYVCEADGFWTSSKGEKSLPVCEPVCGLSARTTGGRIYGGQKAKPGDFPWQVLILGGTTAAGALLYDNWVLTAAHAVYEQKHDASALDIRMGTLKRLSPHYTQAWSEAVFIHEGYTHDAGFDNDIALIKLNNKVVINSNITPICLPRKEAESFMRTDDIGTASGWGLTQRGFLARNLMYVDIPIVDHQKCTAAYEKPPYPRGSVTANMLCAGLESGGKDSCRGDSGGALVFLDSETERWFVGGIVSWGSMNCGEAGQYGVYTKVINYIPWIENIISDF

[7] = target: T3, Zymogen MASP-2 (human) (human, UniProt O00187 16-686, limits assumed); experiment: SPR, immobilized OMS858, fluid phase MASP-2
T3 construct: also called zymogen form of human MASP-2
T3 sequence (O00187 16-686 limits assumed): as above

[8] = target: T4, C1r (human, UniProt P00736 18-705, limits assumed); experiment: solid phase ELISA, immobilized protease, mean apparent KD of two lots
T4 construct: Species read from 'Recombinant human MASP-2 or C1r, C1s, CFD, MASP-1 and MASP-3'
T4 sequence (looked up): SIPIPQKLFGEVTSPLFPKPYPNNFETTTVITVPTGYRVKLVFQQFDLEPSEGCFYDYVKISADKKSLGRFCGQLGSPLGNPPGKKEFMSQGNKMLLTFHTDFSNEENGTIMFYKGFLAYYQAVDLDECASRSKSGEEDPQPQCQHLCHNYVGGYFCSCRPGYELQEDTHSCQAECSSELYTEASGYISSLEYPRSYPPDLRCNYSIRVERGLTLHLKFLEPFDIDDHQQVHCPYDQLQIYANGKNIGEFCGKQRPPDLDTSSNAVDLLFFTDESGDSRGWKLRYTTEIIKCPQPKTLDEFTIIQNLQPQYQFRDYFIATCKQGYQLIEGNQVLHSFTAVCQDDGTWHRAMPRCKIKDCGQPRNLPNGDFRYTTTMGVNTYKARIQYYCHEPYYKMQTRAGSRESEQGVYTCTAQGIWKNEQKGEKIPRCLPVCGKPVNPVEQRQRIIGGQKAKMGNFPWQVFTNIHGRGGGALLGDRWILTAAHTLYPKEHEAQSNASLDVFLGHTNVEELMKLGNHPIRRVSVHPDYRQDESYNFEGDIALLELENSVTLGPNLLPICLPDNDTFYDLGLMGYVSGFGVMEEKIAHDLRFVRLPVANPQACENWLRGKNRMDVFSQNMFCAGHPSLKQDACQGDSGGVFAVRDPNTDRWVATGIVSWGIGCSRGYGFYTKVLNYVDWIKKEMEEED
Text: (§1) The apparent dissociation constant (KD) was estimated by nonlinear regression using a 4-parameter logistic model.
(§2) Fold selectivity calculated as KD(related serine protease)/mean KD(MASP-2).

[9] = target: T5, C1s (human, UniProt P09871 16-688, limits assumed); experiment: as above
T5 construct: Species read from 'Recombinant human MASP-2 or C1r, C1s, CFD, MASP-1 and MASP-3'
T5 sequence (looked up): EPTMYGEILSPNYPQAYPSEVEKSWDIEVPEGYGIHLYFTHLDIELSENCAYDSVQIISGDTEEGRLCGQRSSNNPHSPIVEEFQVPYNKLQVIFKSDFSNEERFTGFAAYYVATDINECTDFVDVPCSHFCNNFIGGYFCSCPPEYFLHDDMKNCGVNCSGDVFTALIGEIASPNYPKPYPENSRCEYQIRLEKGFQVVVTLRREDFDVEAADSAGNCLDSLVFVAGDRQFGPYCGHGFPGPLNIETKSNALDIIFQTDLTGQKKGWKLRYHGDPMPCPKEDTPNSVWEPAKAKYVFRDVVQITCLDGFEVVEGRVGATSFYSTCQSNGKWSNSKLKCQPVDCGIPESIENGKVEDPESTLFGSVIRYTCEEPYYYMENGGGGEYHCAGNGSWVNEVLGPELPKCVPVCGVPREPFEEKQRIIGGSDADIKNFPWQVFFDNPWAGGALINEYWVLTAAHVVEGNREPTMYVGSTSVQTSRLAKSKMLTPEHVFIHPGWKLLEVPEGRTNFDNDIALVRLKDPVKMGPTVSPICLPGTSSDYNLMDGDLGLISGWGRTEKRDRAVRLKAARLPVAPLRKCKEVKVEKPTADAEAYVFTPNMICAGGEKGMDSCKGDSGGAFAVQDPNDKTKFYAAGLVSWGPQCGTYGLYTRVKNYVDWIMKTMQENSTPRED
Text: as §1, §2

[10] = target: T6, CFD (human, UniProt P00746 26-253, limits assumed); experiment: as above
T6 construct: Species read from 'Recombinant human MASP-2 or C1r, C1s, CFD, MASP-1 and MASP-3'; also called factor D; complement factor D
T6 sequence (P00746 26-253 limits assumed): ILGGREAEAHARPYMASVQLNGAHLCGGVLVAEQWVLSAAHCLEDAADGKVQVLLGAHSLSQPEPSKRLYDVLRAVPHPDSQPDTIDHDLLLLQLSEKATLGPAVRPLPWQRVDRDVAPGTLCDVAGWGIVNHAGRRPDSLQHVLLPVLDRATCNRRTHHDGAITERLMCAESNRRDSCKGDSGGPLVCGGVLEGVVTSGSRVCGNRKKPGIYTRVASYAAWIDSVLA
Text: as §1, §2

[11] = target: T7, human MASP-2 (CCP1-CCP2-SP fragment) (human, UniProt O00187 287-686, limits assumed); experiment: solid phase ELISA, plate coated with human MASP-2 (CCP1-CCP2-SP fragment), bound mAb detected with goat anti-human IgG-HRP, OD450
T7 construct: also called human MASP-2 (CCP1/2/SP fragment); hMASP-2-CCP1-CCP2-SP
T7 sequence (O00187 287-686 limits assumed): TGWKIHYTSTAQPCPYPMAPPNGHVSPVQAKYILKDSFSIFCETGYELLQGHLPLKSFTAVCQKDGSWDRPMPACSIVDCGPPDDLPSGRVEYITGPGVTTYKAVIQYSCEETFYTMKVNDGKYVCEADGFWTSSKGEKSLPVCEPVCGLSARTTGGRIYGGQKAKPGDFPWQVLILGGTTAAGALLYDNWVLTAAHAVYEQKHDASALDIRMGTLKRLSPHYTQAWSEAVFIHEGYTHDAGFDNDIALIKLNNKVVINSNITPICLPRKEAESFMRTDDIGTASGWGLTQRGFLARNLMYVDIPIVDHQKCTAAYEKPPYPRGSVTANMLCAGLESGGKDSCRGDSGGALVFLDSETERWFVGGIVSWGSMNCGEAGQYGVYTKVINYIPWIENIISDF
Description: To measure binding of the 26 purified recombinant MASP-2 antibodies to human MASP-2 (CCP1-CCP2-SP fragment), a solid phase ELISA assay was carried out as follows. A MaxiSorp ELISA plate was coated with human MASP-2 (CCP1/2/SP fragment) at 1.0 μg/mL in carbonate/bi-carbonate buffer overnight at 4° C. […] The plate was washed (PBS-T, 0.05%) and a detection antibody was added (goat anti-human IgG-HRP) for one hour at room temperature. After another wash (PBS-T, 0.05%) the plate was developed (5 minutes) with OPT EIA TMB (BD Biosciences #555214). Absorbance reading at A450 was measured using the Spectramax M5e plate reader.
A solid phase ELISA assay was carried out to measure binding of the three selected MASP-2 inhibitory antibodies to human MASP-2 (CCP1-CCP2-SP fragment), as described in Example 1.

T1 sequence (O00187 16-686 limits assumed): as the sequence (O00187 16-686 limits assumed) above
Sequence of dog MASP-2 (endogenous, in dog serum) (dog) (chain, as listed by the source limits assumed): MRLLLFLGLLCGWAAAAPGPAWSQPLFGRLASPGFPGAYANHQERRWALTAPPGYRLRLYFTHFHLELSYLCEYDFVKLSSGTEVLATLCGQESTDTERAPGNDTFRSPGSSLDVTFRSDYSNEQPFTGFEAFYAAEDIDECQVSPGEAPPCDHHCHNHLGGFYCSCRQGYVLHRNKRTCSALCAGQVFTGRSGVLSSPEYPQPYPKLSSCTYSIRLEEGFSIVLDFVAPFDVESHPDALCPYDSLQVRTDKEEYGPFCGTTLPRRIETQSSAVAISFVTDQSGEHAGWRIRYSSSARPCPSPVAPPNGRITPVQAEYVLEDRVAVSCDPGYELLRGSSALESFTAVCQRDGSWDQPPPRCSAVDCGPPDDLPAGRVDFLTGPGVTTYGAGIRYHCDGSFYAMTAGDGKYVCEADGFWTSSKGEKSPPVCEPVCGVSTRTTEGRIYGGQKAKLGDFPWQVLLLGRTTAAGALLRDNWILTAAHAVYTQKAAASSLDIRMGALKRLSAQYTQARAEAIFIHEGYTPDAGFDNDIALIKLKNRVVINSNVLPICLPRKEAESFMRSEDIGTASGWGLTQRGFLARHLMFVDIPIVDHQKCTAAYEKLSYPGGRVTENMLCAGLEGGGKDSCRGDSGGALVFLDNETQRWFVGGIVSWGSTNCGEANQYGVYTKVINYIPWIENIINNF

- C5b-9 deposition, lectin pathway-specific conditions (Wieslab), human serum, IC50 [1]: 0.81 nM
- MAC deposition under lectin pathway-specific conditions (Wieslab COMPL300), IC50 [1]: ~1 nM
- lectin-dependent C4 activation in 50% human serum, IC50, Experiment 1 [2]: 0.89 nM
- lectin-dependent C4 activation in 50% human serum, IC50, Experiment 2 [2]: 0.86 nM
- lectin-dependent C4 activation in 50% human serum, IC50, Experiment 3 [2]: 1.52 nM
- lectin-dependent C4 activation in 50% human serum, IC50, MEAN [2]: 1.09 nM
- lectin-dependent C4 activation in 50% dog serum, IC50, Experiment 1 [3]: > 500 nM
- lectin-dependent C4 activation in 50% dog serum, IC50, Experiment 2 [3]: > 500 nM
- lectin-dependent C4 activation in 50% dog serum, IC50, Experiment 3 [3]: > 500 nM
- Ratio (IC50-Query/IC50-Human), lectin-dependent C4 activation [4]: 40.5 fold
- Ratio (IC50-Query/IC50-Human), lectin-dependent C4 activation [5]: 10.9 fold
- Kd [6]: 0.287 nM
- koff [6]: 0.00971 s⁻¹
- kon [6]: 3.38e+07 M⁻¹ s⁻¹
- Kd [7]: 0.715 nM
- koff [7]: 0.000172 s⁻¹
- kon [7]: 241000 M⁻¹ s⁻¹
- Kd [8]: > 100 mg/L
- Kd [9]: > 100 mg/L
- Kd [10]: > 100 mg/L
- EC50 (read off the curve) [11]: ~0.2 nM
B1: mAb OMS858 (humanized anti-MASP-2 antibody) (antibody, V domains shown)
VH: QVQLVQSGAEVKKPGASVKVSCKASGYTFTNHHMHWLRQAPGQGLEWIGDIDASDSETHYIEKFKDRATLTIDKSSSTAYMELSSLRSEDTAVYYCARGDITTTLRYFDVWGQGTLVTVSS
VL: DIQLTQSPSSLSASVGDRVTITCSASSSVRYMYWYQQKPGKAPKLLIYDTSNLASGVPSRFSGSGSGTDNTLTISSLQPEDFATYYCQQWSSYPLTFGQGTKVEIKR
notes: also called antibody OMS858; biotinylated OMS858
